Test results published in patent US9494585B2, “Tools for the identification of Lingo-1, Lingo-2, Lingo-3 and Lingo-4 ligands, and uses thereof” (CENTRE NATIONAL DE LA RECHERCHE SCIENTIFIQUE-CNRS, priority 2010, dated 2016).

B1: Lingo-1-HA: whole human Lingo-1 protein (amino acids 1-620) tagged with HA (protein)
chain: CPPRCECSAQDRAVLCHRKRFVAVPEGIPTETRLLDLGKNRIKTLNQDEFASFPHLEELELNENIVSAVEPGAFNNLFNLRTLGLRSNRLKLIPLGVFTGLSNLTKLDISENKIVILLDYMFQDLYNLKSLEVGDNDLVYISHRAFSGLNSLEQLTLEKCNLTSIPTEALSHLHGLIVLRLRHLNINAIRDYSFKRLYRLKVLEISHWPYLDTMTPNCLYGLNLTSLSITHCNLTAVPYLAVRHLVYLRFLNLSYNPISTIEGSMLHELLRLQEIQLVGGQLAVVEPYAFRGLNYLRVLNVSGNQLTTLEESVFHSVGNLETLILDSNPLACDCRLLWVFRRRWRLNFNRQQPTCATPEFVQGKEFKDFPDVLLPNYFTCRRARIRDRKAQQVFVDEGHTVQFVCRADGDPPPAILWLSPRKHLVSAKSNGRLTVFPDGTLEVRYAQVQDNGTYLCIAANAGGNDSMPAHLHVRSYSPDWPHQPNKTFAFISNQPGEGEANSTRATVPFPFDIKTLIIATTMGFISFLGVVLFCLVLLFLWSRGKGNTKHNIEIEYVPRKSDAGISSADAPRKFNMKMI
modifications: left off: small tags and cut ends
notes: whole human Lingo-1 protein (amino acids 1-620) tagged with HA
B2: DN-Lingo-1-HA: HA-tagged dominant negative of Lingo-1 (amino acids 1-577, without cytoplasmic portion), known Lingo-1 inhibitor (protein)
chain: CPPRCECSAQDRAVLCHRKRFVAVPEGIPTETRLLDLGKNRIKTLNQDEFASFPHLEELELNENIVSAVEPGAFNNLFNLRTLGLRSNRLKLIPLGVFTGLSNLTKLDISENKIVILLDYMFQDLYNLKSLEVGDNDLVYISHRAFSGLNSLEQLTLEKCNLTSIPTEALSHLHGLIVLRLRHLNINAIRDYSFKRLYRLKVLEISHWPYLDTMTPNCLYGLNLTSLSITHCNLTAVPYLAVRHLVYLRFLNLSYNPISTIEGSMLHELLRLQEIQLVGGQLAVVEPYAFRGLNYLRVLNVSGNQLTTLEESVFHSVGNLETLILDSNPLACDCRLLWVFRRRWRLNFNRQQPTCATPEFVQGKEFKDFPDVLLPNYFTCRRARIRDRKAQQVFVDEGHTVQFVCRADGDPPPAILWLSPRKHLVSAKSNGRLTVFPDGTLEVRYAQVQDNGTYLCIAANAGGNDSMPAHLHVRSYSPDWPHQPNKTFAFISNQPGEGEANSTRATVPFPFDIKTLIIATTMGFISFLGVVLFCLV
modifications: left off: small tags and cut ends

Biological target: T1, Lingo-1-RLuc/Lingo-1-YFP dimer (Homo sapiens, UniProt Q96FE5)
T1 construct: expressed in transfected cells; host or cells: HEK-293 (transient calcium phosphate transfection)
Assay: BRET measurement of Lingo-1 dimerization (Lingo-1-RLuc/Lingo-1-YFP) on live transfected HEK-293 cells
Assay type: cell-based
Conditions: for BRET signal obtained between Lingo-1-RLuc and Lingo-1-YFP: HEK-293, HA-tagged construct co-expressed (800 ng), constant donor/acceptor ratio, 48 h after transfection, p<0.001 vs control
Experimental: For the BRET experiments, the HEK-293 cells cultured in 6-well plates, pre-treated with collagen, are transiently transfected using the calcium phosphate technique. Briefly, the plasmid DNA is mixed into a phosphate buffer (2×BBS, composed in particular of 50 mM BES (Cat No. B4554, Sigma), 280 mM NaCl, 1.5 mM Na2HPO4, adjusted to pH 6.95) with calcium chloride (2.5 M). After incubation for 15 minutes, the precipitate obtained is applied to the cells for 24 hours. The cells are then rinsed and incubated for a further 24 hours in a culture medium without antibiotics.
The cells are resuspended in a physiological buffer (HBSS for Hank's Buffered Salt Solution (Cat No. 14025100, Gibco, composed in particular of calcium chloride, magnesium chloride, magnesium sulfate, potassium chloride, monobasic potassium phosphate, sodium bicarbonate, sodium chloride, anhydrous dibasic sodium phosphate)) 48 hours after transfection and distributed into 96-well plates (100 000 to 200 000 cells per well) or into 384-well plates (20 000 to 40 000 cells per well). The fluorescence and luminescence readings are carried out at ambient temperature on a microplate reader, Mithras LB 940 (Berthold). The yield from transfection of the Lingo-1-eYFP, Lingo-2-eYFP, Lingo-3-eYFP or Lingo-4-eYFP construct is evaluated by reading the fluorescence of the eYFP emitted at 530-540 nm after excitation at 480 nm. The yield from transfection of the Lingo-1-RLuc, Lingo-2-RLuc, Lingo-3-RLuc or Lingo-4-RLuc construct is evaluated by reading the luminescence (1 second) obtained immediately after the addition of the coelenterazine substrate (5 μM).
The measurement of the BRET signal is carried out immediately after the addition of coelenterazine. […] The energy transfer which takes place in the fusion protein between the Rluc and the eYFP causes the appearance of a fluorescence signal with a maximum emission at 530-540 nm, characteristic of the spectral properties of eYFP. […]
The BRET reading was carried out at ambient temperature on a microplate reader, Mithras LB 940 (Berthold), using the new BRET filters. […]

Row | Molecule | BRET signal obtained between Lingo-1-RLuc and Lingo-1-YFP | BRET signal obtained between the Lingo-1-RLuc and Lingo-1-YFP proteins (HEK-293, Lingo-1-RLuc 250 ng/Lingo-1-YFP 1500 ng, new filters, HA-tagged protein at 0-2600 ng plasmid)
1 | B1 | significantly decreased | 
2 | B2 | significantly decreased | significantly decreased
